# Assay results as given in IntAct's records for PubMed 11711533.
# B1: Tyrosine-protein phosphatase non-receptor type 12 (Mus musculus), P35831 (parent)
# chain: MEQVEILRRFIQRVQAMKSPDHNGEDNFARDFMRLRRLSTKYRTEKIYPTATGEKEENVKKNRYKDILPFDHSRVKLTLKTPSQDSDYINANFIKGVYGPKAYVATQGPLANTVIDFWRMIWEYNVVIIVMACREFEMGRKKCERYWPLYGEDPITFAPFKISCENEQARTDYFIRTLLLEFQNESRRLYQFHYVNWPDHDVPSSFDSILDMISLMRKYQEHEDVPICIHCSAGCGRTGAICAIDYTWNLLKAGKIPEEFNVFNLIQEMRTQRHSAVQTKEQYELVHRAIAQLFEKQLQLYEIHGAQKIADGNEITTGTMVSSIDSEKQDSPPPKPPRTRSCLVEGDAKEEILQPPEPHPVPPILTPSPPSAFPTVTTVWQDSDRYHPKPVLHMASPEQHPADLNRSYDKSADPMGKSESAIEHIDKKLERNLSFEIKKVPLQEGPKSFDGNTLLNRGHAIKIKSASSSVVDRTSKPQELSAGALKVDDVSQNSCADCSAAHSHRAAESSEESQSNSHTPPRPDCLPLDKKGHVTWSLHGPENATPVPDSPDGKSPDNHSQTLKTVSSTPNSTAEEEAHDLTEHHNSSPLLKAPLSFTNPLHSDDSDSDGGSSDGAVTRNKTSISTASATVSPASSAESACTRRVLPMSIARQEVAGTPHSGAEKDADVSEESPPPLPERTPESFVLADMPVRPEWHELPNQEWSEQRESEGLTTSGNEKHDAGGIHTEASADSPPAFSDKKDQITKSPAEVTDIGFGNRCGKPKGPREPPSEWT
# B2: Proline-serine-threonine phosphatase-interacting protein 1 (Mus musculus), P97814 (parent)
# chain: MMAQLQFRDAFWCRDFTAHTGYEVLLQRLLDGRKMCKDVEELLRQRAQAEERYGKELVQIARKAGGQTEMNSLRTSFDSLKQQTENVGSAHIQLALALREELRSLEEFRERQKEQRKKYEAIMDRVQKSKLSLYKKTMESKKAYDQKCRDADDAEQAFERVSANGHQKQVEKSQNKAKQCKESATEAERVYRQNIEQLERARTEWEQEHRTTCEAFQLQEFDRLTILRNALWVHCNQLSMQCVKDDELYEEVRLTLEGCDVEGDINGFIQSKSTGREPPAPVPYQNYYDREVTPLIGSPSIQPSCGVIKRFSGLLHGSPKTTPSAPAASTETLTPTPERNELVYASIEVQATQGNLNSSAQDYRALYDYTAQNSDELDISAGDILAVILEGEDGWWTVERNGQRGFVPGSYLEKL
# partner: B1 chain
# Variants of: B1
# Conditions: with ppip1_mouse Pstpip1, P97814
row,effect of a mutation on the interaction,Variant
1,decreasing interaction,C231S

# Variants of: B2
# Conditions: with ptn12_mouse Ptpn12, P35831
row,effect of a mutation on the interaction,Variant
1,disrupting interaction,Y344F
